Laboratory results taken from patent publication US20220406376A1 (MacroGenics, published 2022).

Assays:
[1] = biological target: T1, CD137 on the surface of cells (activated human T cells; engineered CHO cells) (human, UniProt Q07011 24-255); assay: flow cytometry on activated CD8+ T cells (donor D59788, CD8 FITC), anti-hFc APC MFI
T1 construct: whole, on cells; also called human CD137; cell surface expressed CD137

[2] = biological target: T2, 5T4 on the surface of target cells (JIMT-1, SKOV-3) (UniProt Q13641 32-420, limits assumed); assay: flow cytometry on JIMT-1 (5T4 hi) cells, anti-hFc APC MFI
T2 construct: whole, on cells
T2 sequence (looked up): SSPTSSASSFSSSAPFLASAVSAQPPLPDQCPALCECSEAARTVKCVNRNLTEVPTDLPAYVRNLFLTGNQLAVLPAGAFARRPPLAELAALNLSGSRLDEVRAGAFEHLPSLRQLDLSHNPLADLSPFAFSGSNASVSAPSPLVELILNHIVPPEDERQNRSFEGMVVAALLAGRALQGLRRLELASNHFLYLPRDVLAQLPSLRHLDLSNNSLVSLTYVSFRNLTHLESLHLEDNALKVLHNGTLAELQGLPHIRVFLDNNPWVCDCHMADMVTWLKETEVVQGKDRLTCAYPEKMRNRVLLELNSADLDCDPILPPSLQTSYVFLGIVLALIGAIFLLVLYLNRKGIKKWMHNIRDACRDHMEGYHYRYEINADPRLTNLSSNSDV

[3] = biological target: T1, CD137 on the surface of cells …; assay: flow cytometry on CD137-expressing CHO cells (CHO/137), anti-hFc APC MFI
[4] = biological target: T3, HER2/neu on the surface of target cells (N87, JIMT-1, MCF-7, MDA-MB231) (UniProt P04626 23-1255, limits assumed); assay: flow cytometry on JIMT-1 cells, anti-hFc APC MFI
T3 construct: whole, on cells

[5] = biological target: T1, CD137 on the surface of cells …; assay: flow cytometry on activated pan T cells (donor D46433, CD8 PE), anti-hFc APC MFI
[6] = biological target: T4, extracellular portion of human CD137 fused to a histidine-containing peptide (human, UniProt Q07011 24-186); assay: SPR (BIACORE); molecule captured on anti-human Fc; huCD137 6.25-100 nM; 1:1 Langmuir
T4 construct: extracellular domain; also called huCD137; His-tagged soluble human CD137
Protocol: (§1) The amino acid sequences of these clones were incorporated into the 5 chain diabody DART-G to yield optimized DART-G molecules (designated as DART-G1, DART-G2; DART-G3, and DART-G4). The binding affinity of DART-G2, DART-G3, and DART-G4 were evaluated via BIAcore (Table 11). For such evaluation, His-tagged soluble human CD137 (huCD137) or cynomolgus monkey CD137 (cynoCD137) (containing an extracellular portion of human or cynomolgus monkey CD137 fused to a histidine-containing peptide) was passed over a surface coated with immobilized antibody. Briefly, each test molecule was captured onto an F(ab)₂ goat-anti-human Fc-coated surface and then incubated in the presence of different concentrations (6.25-100 nM) of huCD137 or cynoCD137. The kinetics of binding were determined via BIACORE® analysis binding (normalized 1:1 Langmuir binding model).

[7] = biological target: T3, HER2/neu on the surface of target cells …; assay: flow cytometry on N87 cells, anti-hFc APC MFI
[8] = biological target: T5, extracellular portion of cynomolgus monkey CD137 fused to a histidine-containing peptide (cynomolgus monkey, UniProt A9YYE7 24-186); assay: SPR (BIACORE); molecule captured on anti-human Fc; cynoCD137 6.25-100 nM; 1:1 Langmuir
T5 construct: extracellular domain; also called cynoCD137
T5 sequence: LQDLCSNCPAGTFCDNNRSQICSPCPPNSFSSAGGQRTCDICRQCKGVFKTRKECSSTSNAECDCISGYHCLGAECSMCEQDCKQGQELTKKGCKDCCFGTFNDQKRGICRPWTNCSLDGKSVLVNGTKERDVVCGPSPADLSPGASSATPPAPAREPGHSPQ
Protocol: as §1

[9] = biological target: T5, extracellular portion of cynomolgus …; assay: SPR (BIACORE); molecule captured on anti-human Fc; cynoCD137 6.25-100 nM; column head ×10^-4 applied as printed
Protocol: as §1

[10] = biological target: T3, HER2/neu on the surface of target cells …; assay: flow cytometry on MCF-7 cells, anti-hFc APC MFI
[11] = biological target: T1, CD137 on the surface of cells …; assay: flow cytometry on activated CD8+ T cells (donor D53781, CD8 FITC), anti-hFc APC MFI

T1 sequence (Q07011 24-255, change not shown): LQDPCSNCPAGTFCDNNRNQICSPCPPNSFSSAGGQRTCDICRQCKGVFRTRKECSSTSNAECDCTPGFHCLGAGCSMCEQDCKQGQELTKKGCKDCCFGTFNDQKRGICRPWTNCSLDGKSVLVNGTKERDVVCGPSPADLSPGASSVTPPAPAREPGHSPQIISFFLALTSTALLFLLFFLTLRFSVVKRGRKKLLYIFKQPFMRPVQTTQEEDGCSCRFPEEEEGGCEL

B1: TRIDENT-4 (bispecific antibody, human IgG1, kappa, L234A L235A)
chain 1: DIQMTQSPSSLSASVGDRVTITCQASQDISNYLNWYQQKPDKTVKLLIYYTGRARSGVPSRFSGSGSGTDFTFTISSLQPEDIATYFCQQGDTLPYTFGQGTKLEIKGGGSGGGGQVQLVQSGAEVKKPGASVKVSCKASGYTFTSYWINWVRQAPGQGLEWIGNIYPSDSYTNYNQKFKDKATITADKSTSTAYMELSSLRSEDTAVYYCTRDYGSAYSMSTWGQGTTVTVSSASTKGEVAACEKEVAALEKEVAALEKEVAALEKGGGDKTHTCPPCPAPEAAGGPSVFLFPPKPKDTLMISRTPEVTCVVVDVSHEDPEVKFNWYVDGVEVHNAKTKPREEQYNSTYRVVSVLTVLHQDWLNGKEYKCKVSNKALPAPIEKTISKAKGQPREPQVYTLPPSREEMTKNQVSLWCLVKGFYPSDIAVEWESNGQPENNYKTTPPVLDSDGSFFLYSKLTVDKSRWQQGNVFSCSVMHEALHNHYTQKSLSLSPGK
chain 2: DIQMTQSPSSLSASVGDRVTITCQASQDISNYLNWYQQKPDKTVKLLIYYTGRARSGVPSRFSGSGSGTDFTFTISSLQPEDIATYFCQQGDTLPYTFGQGTKLEIKGGGSGGGGQVQLVQSGAEVKKPGASVKVSCKASGYTFTSYWINWVRQAPGQGLEWIGNIYPSDSYTNYNQKFKDKATITADKSTSTAYMELSSLRSEDTAVYYCTRDYGSAYSMSTWGQGTTVTVSSASTKGKVAACKEKVAALKEKVAALKEKVAALKE
heavy: QVTLRESGPALVKPTQTLTLTCTFSGFSLSTSGMSVGWIRQPPGKALEWLADIWWDDKKDYNPSLKSRLTISKDTSKNQVVLKVTNMDPADTATYYCARSMITNWYFDVWGAGTTVTVSSASTKGPSVFPLAPSSKSTSGGTAALGCLVKDYFPEPVTVSWNSGALTSGVHTFPAVLQSSGLYSLSSVVTVPSSSLGTQTYICNVNHKPSNTKVDKRVEPKSCDKTHTCPPCPAPEAAGGPSVFLFPPKPKDTLMISRTPEVTCVVVDVSHEDPEVKFNWYVDGVEVHNAKTKPREEQYNSTYRVVSVLTVLHQDWLNGKEYKCKVSNKALPAPIEKTISKAKGQPREPQVYTLPPSREEMTKNQVSLSCAVKGFYPSDIAVEWESNGQPENNYKTTPPVLDSDGSFFLVSKLTVDKSRWQQGNVFSCSVMHEALHNRYTQKSLSLSPGK
light: DIQMTQSPSTLSASVGDRVTITCRASQSVGYMHWYQQKPGKAPKLLIYDTSKLASGVPSRFSGSGSGTEFTLTISSLQPDDFATYYCFQGSGYPFTFGGGTKLEIKRTVAAPSVFIFPPSDEQLKSGTASVVCLLNNFYPREAKVQWKVDNALQSGNSQESVTEQDSKDSTYSLSSTLTLSKADYEKHKVYACEVTHQGLSSPVTKSFNRGEC
EC50 (read off the curve) [1]: ~0.007 µg/mL
binding result [2]: no binding (tested: 10 ug/mL)

B2: DART-G4 (bispecific antibody, human IgG1, kappa, L234A L235A)
heavy: QVQLVQSGAEVKKPGASVKVSCKASGYTFTNYGMNWVRQAPGQGLEWMGWINTNIGEPTYTEEFKGRVTMTRDTSISTAYMELSRLRSDDTAVYYCARDDGYGNRVSYWGQGTLVTVSSASTKGPSVFPLAPSSKSTSGGTAALGCLVKDYFPEPVTVSWNSGALTSGVHTFPAVLQSSGLYSLSSVVTVPSSSLGTQTYICNVNHKPSNTKVDKRVEPKSCDKTHTCPPCPAPEAAGGPSVFLFPPKPKDTLMISRTPEVTCVVVDVSHEDPEVKFNWYVDGVEVHNAKTKPREEQYNSTYRVVSVLTVLHQDWLNGKEYKCKVSNKALPAPIEKTISKAKGQPREPQVYTLPPSREEMTKNQVSLSCAVKGFYPSDIAVEWESNGQPENNYKTTPPVLDSDGSFFLVSKLTVDKSRWQQGNVFSCSVMHEALHNRYTQKSLSLSPGK
light: DIQMTQSPSSLSASVGDRVTITCKASQDISNYLSWFQQKPGKAPKTLIYRANRLQSGVPSRFSGSGSGTDFTLTISSLQPEDFATYYCLQHDEFPWTFGQGTKLEIKRTVAAPSVFIFPPSDEQLKSGTASVVCLLNNFYPREAKVQWKVDNALQSGNSQESVTEQDSKDSTYSLSSTLTLSKADYEKHKVYACEVTHQGLSSPVTKSFNRGEC
chain 1: QVQLVQSGAEVKKPGASVKVSCKASGYTFTNYGMNWVRQAPGQGLEWMGWINTNIGEPTYTEEFKGRVTMTRDTSISTAYMELSRLRSDDTAVYYCARDDGYGNRVSYWGQGTLVTVSSASTKGPSVFPLAPSSKSTSGGTAALGCLVKDYFPEPVTVSWNSGALTSGVHTFPAVLQSSGLYSLSSVVTVPSSSLGTQTYICNVNHKPSNTKVDKRVEPKSCDKTHTCPPCPAPEAAGGPSVFLFPPKPKDTLMISRTPEVTCVVVDVSHEDPEVKFNWYVDGVEVHNAKTKPREEQYNSTYRVVSVLTVLHQDWLNGKEYKCKVSNKALPAPIEKTISKAKGQPREPQVYTLPPSREEMTKNQVSLWCLVKGFYPSDIAVEWESNGQPENNYKTTPPVLDSDGSFFLYSKLTVDKSRWQQGNVFSCSVMHEALHNHYTQKSLSLSPGGGGSGGGSGGGDIQMTQSPSSLSASVGDRVTITCRPSQDISNYLNWYQQKPDKTVKLLIYYTSRLRSGVPSRFSGSGSGTDFTFTISSLQPEDIATYFCQQGDTLPYTFGQGTKLEIKGGGSGGGGQVQVQLVQSGAEVKKPGASVKVSCKASGYTFTSYWINWVKQAPGQGLEWIGNIYPSDSYTNYNQKFKDKATITADKSTSTAYMELSSLRSEDTAVYYCTRDYGSSYSYNVWGQGTTVTVSSGGCGGGEVAALEKEVAALEKEVAALEKEVAALEK
chain 2: DIQMTQSPSSLSASVGDRVTITCRPSQDISNYLNWYQQKPDKTVKLLIYYTSRLRSGVPSRFSGSGSGTDFTFTISSLQPEDIATYFCQQGDTLPYTFGQGTKLEIKGGGSGGGGQVQLVQSGAEVKKPGASVKVSCKASGYTFTSYWINWVKQAPGQGLEWIGNIYPSDSYTNYNQKFKDKATITADKSTSTAYMELSSLRSEDTAVYYCTRDYGSSYSYNVWGQGTTVTVSSGGCGGGKVAALKEKVAALKEKVAALKEKVAALKE
notes: also called optimized DART-G4
EC50 (read off the curve) [3]: ~0.02 µg/mL
EC50 (read off the curve) [4]: ~0.2 nM
EC50 (read off the curve) [5]: ~0.08 nM
Kd [6]: 28 nM
koff [6]: 0.0087 s⁻¹
kon [6]: 310000 M⁻¹ s⁻¹
EC50 (read off the curve) [7]: ~0.5 nM
Kd [8]: 40 nM
kon [8]: 350000 M⁻¹ s⁻¹
koff [9]: 0.014 s⁻¹
EC50 (read off the curve) [10]: ~0.09 nM
EC50 (read off the curve) [11]: ~0.02 µg/mL
